Laboratory results: US20170334973A1

Legend:
[1] = target: BDBV GP (Bundibugyo virus (BDBV)); experiment: GP ELISA, purified mAb
[2] = target: BDBV GP (Bundibugyo virus (BDBV)); experiment: ELISA, purified mAb

Sequence of FVM09 (antibody) (VH): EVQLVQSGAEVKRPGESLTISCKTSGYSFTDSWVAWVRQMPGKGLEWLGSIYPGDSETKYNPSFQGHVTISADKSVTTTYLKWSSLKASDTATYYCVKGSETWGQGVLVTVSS
Sequence of FVM09 (antibody) (V domain): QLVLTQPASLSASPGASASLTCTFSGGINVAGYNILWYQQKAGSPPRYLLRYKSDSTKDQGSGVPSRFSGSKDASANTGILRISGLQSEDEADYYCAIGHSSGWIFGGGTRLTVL

FVM09 (antibody)
EC50 [1]: 0.02 µg/mL
EC50 [2]: < 0.015 µg/mL
